Experimental data taken from article PMC7181634, “Enhanced succinic acid production by Mannheimia employing optimal malate dehydrogenase” (Nature Communications, 2020).
Where a chain is given by its changes, count along the chain named. Names and notes keep the numbering of the source.

B1: CgMDH (Corynebacterium glutamicum ATCC 13032) (protein)
chain: MNSPQNVSTKKVTVTGAAGQISYSLLWRIANGEVFGTDTPVELKLLEIPQALGGAEGVAMELLDSAFPLLRNITITADANEAFDGANAAFLVGAKPRGKGEERADLLANNGKIFGPQGKAINDNAADDIRVLVVGNPANTNALIASAAAPDVPASRFNAMMRLDHNRAISQLATKLGRGSAEFNNIVVWGNHSATQFPDITYATVGGEKVTDLVDHDWYVEEFIPRVANRGAEIIEVRGKSSAASAASSAIDHMRDWVQGTEAWSSAAIPSTGAYGIPEGIFVGLPTVSRNGEWEIVEGLEISDFQRARIDANAQELQAEREAVRDLL
notes: full length, C-terminal 6xHis (pET30a), expressed in E. coli BL21(DE3), Ni-NTA, ion exchange and size exclusion
B2: MsMDH ([Mannheimia] succiniciproducens MBEL55E) (protein)
chain: MKVAVLGAAGGIGQALALLLKLQLPAGSSLSLYDVAPVTPGVAKDLSHIPTDVVVEGFAGTDPSEALKGADIVLISAGVARKPGMTRADLFGVNAGIIRSLTEKVAEQCPKACVGIITNPVNAMVAIAAEVLKKAGVYDKRKLFGITTLDILRAETFIAELKGLDPTRVTIPVIGGHSGVTILPLLSQVQNVEWSSEEEIIALTHRIQNAGTEVVEAKAGGGSATLSMAQAAARFALALVKASQGAKVVECAYVEGDGKYARFFAQPVRLGTEGVEEYLTLGKLSAFEEKALNAMLETLQGDIKSGEDFING
notes: as for B1
B3: MsMDH ([Mannheimia] succiniciproducens MBEL55E; G11Q) (protein)
chain: B2 chain with G11Q
notes: as for B1

Columns and labels:
[1] = substrate: O=C(O)CC(=O)C(=O)O; assay: purified protein; assay type: biochemical, Corynebacterium glutamicum; details: pH 7.0, 0.1 M Tris-HCl, NADH co-substrate, room temperature
[2] = substrate: O=C(O)CC(=O)C(=O)O; assay: purified protein; assay type: biochemical, [Mannheimia] succiniciproducens; details: pH 7.0, 0.1 M Tris-HCl, NADH co-substrate, room temperature

| Protein | Km [1] | kcat [1] | kcat/Km [1] | Km [2] | kcat [2] | kcat/Km [2] |
| --- | --- | --- | --- | --- | --- | --- |
| B1 | 46.1 ± 7.3 µM | 920 ± 77 s⁻¹ | 1.99e+07 ± 300000 M⁻¹ s⁻¹ | – | – | – |
| B2 | – | – | – | 18.2 ± 10.5 µM | 376 ± 119 s⁻¹ | 2.07e+07 ± 4.5e+06 M⁻¹ s⁻¹ |
| B3 | – | – | – | 103.5 ± 25.9 µM | 927 ± 152 s⁻¹ | 9e+06 ± 400000 M⁻¹ s⁻¹ |
